The results in this text go back to patent US20040014138A1 (published 2004).

This assay concerns the target T1, bovine serum albumin (bovine, UniProt P02769 25-607).
T1 construct: Negative control coating protein in the enzyme capture assay; also called BSA
As to the kind of experiment: enzyme capture assay, coated wells, APC-spiked plasma, chromogenic read-out. The procedure:
As negative controls, microtiter plate wells were coated with either 5 μg/ml HPC4 monoclonal antibody or 1% bovine serum albumin (BSA) in the same buffer. The plates were then blocked for 1 hour at 37° C. or overnight at 4° C. with 200 μl of blocking buffer (coating buffer containing 1% BSA). The solutions were gently removed from the plates by vacuum.
To generate a standard curve for the quantitative measurement of APC in plasma, increasing amounts of APC (from 0 to 250 ng/ml) were spiked into normal pooled plasma containing 20 mM Hepes, pH 7.5, 2 units/ml heparin, 20 mM benzamidine, and 10 mM CaCl₂. The spiked plasma (100 μl) were transferred to the plates and incubated at room temperature for 1 hour. The wells were then washed three times with wash buffer (20 mM Hepes, pH 7.5, 150 mM NaCl, 0.05% Tween-20, and 5 mM CaCl₂). The chromogenic activity of APC was determined by the addition of 100 μl of Spectrozyme PCa (1 mM) in 20 mM Hepes, pH 7.5, 150 mM NaCl, 5 mM CaCl₂. The plates were immediately placed at 37° C., and substrate hydrolysis was monitored at 405 nm over time using a Vmax microplate reader (Molecular Devices Corp, Sunnyvale, Calif.). All samples were assayed in duplicates or triplicates.

T1 sequence (P02769 25-607 limits assumed): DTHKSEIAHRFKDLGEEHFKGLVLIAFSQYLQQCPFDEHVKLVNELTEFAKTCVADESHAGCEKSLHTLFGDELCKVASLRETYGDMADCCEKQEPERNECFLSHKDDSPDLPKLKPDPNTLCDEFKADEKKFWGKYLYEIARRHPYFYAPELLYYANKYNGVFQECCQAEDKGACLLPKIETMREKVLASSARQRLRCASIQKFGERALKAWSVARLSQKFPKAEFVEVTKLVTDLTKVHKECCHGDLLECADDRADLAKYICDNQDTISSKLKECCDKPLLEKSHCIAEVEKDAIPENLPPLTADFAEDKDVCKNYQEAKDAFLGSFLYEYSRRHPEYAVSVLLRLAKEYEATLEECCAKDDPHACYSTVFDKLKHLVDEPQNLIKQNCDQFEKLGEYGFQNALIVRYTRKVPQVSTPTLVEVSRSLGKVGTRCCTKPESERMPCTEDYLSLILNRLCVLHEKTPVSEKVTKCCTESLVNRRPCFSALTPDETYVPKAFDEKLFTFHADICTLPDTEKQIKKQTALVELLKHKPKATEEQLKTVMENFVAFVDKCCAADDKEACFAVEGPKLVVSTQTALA

B1: human activated protein C (enzyme)
chain 1: ANSFLEELRHSSLERECIEEICDFEEAKEIFQNVDDTLAFWSKHVDGDQCLVLPLEHPCASLCCGHGTCIDGIGSFSCDCRSGWEGRFCQREVSFLNCSLDNGGCTHYCLEEVGWRRCSCAPGYKLGDDLLQCHPAVKFPCGRPWKRMEKKRSHL
chain 2: LIDGKMTRRGDSPWQVVLLDSKKKLACGAVLIHPSWVLTAAHCMDESKKLLVRLGEYDLRRWEKWELDLDIKEVFVHPNYSKSTTDNDIALLHLAQPATLSQTIVPICLPDSGLAERELNQAGQETLVTGWGYHSSREKEAKRNRTFVLNFIKIPVVPHNECSEVMSNMVSENMLCAGILGDRQDACEGDSGGPMVASFHGTWFLVGLVSWGEGCGLLHNYGVYTKVSRYLDWIHGHIRDKEAPQKSWAP
notes: the whole natural protein is named as one piece; also called APC
Take B1: the binding result was “no binding (tested: 1% coating)”.
